In paper PMC5414288 (2017):
No end group written: not given here. *: point of attachment. HYNIC = NNc1ccc(C(=O)*)cn1

Molecular target: EGFR (on SKOV3 cells) (Homo sapiens, UniProt P00533)
Assay: saturation binding assay on SKOV3 cells (radioligand)

{HYNIC}-SSSYHWYGYTPQNVI (also: 99mTc-tricine labeled) [HYNIC-SSS-GE11 peptide]
Kd: 73 nM
